Reference: patent US20150351390A1, “COMPOSITIONS AND METHODS FOR AUXIN-ANALOG CONJUGATION” (PIONEER HI-BRED INTERNATIONAL, INC., priority 2012, published 2015)

B1: OsGH3-7: GH3 protein, accession Q654M1 (protein, listed as Oryza sativa)
chain: MALLLPEFDPADVRAGRDLIHRLTADAAGIQRGVLREILSRNSGTEYLRRFLGGAAGDDDDVRDAFKRRVPVSGYEDVKPYVDRVASGGEPSSALLCSDPITCLSRSSGTSGGQQKLLPSTAEELDRKVFFYAVQALVRNMSLHTDHGEDDDGGGGEGMYLMFAFHGDRTLSGLPIQSALTTYYHSRQFQECDIGGFDKCTSPLEAILCPYGEQSMYCQLLCGLLHRCRVDRVGASFAAGLVRGIKFLENHWEEMCFNIRSGQLSDWITHTPLRDAVTGQYLQGSNPALADEIASECARKPWDGIVRRLWPRARYIRTIVTGSMSQYIPILEVYGGGLPLVSPIYASTECAAGINLRPLDPPSHVSYALLPNIAYFEFLEVMDENGEKVQGTTRLDDNLGEVKVVDLVDVKVGRCYELIVTTFAGLYRYRVGDLFTVSGFYNATPLFHFSGRHDVILSIDYEKISEEDLLNAIAETDKFHLRPLGYMLVGSTAYADISTLPGHYILFWELTNTCDSNVAIDIDQTAMEKCCLAVEDHFDEMYRKIRHRGSISALEIRILSHGAFDALMDFFVSRGTSASQYKTPTAIRSKEAMMVLEERVVGRFFSQATPSCRSAEFERR
B2: OsGH3-11: GH3 protein, accession P0C0M3 (protein, listed as Oryza sativa)
chain: MDDHNLDYKGSGALEELEMLTVNAKEAQELILTKILERNQATEYLSKFMNGSTNISAFKRHVPVVTYDKVHPYILRIATGEESSILCGEYILELLRSSGTSRGEPRLMPSILKDLDRRTYLYSLIMPIMNKYISGLGEGKAMYLLFVKAETLTDSGIPVRSVLTSYYKSPHFLHRKHDLYNNYTSPDEVILCPDSQQSMYCQLLCGLVERQHVLRIGAVFASAFLRSISFLEQHWRDLVNDIRIGQLNSSITSPACRLAMLNFLALPNPELADQVEAICSCGSWKGILGRLWPNVKYIEAVLTGTMAQYIPMLEFYGGGAIPFVCTMYASSESYFGVNLSPLCSPADVSYTILPNMAYFEFIPLEDGLRLTDHEEVIENDKLVSLVDVKVGCYYELVVTTFSGLYRYRVGDVLQVTGFYNRAPQFKFICRRNVILSIDSDKTNEEDLHNSVTTAKKILENQNYLLLEYTSYTDISTVPGHYVLFWEIKSTHDERPAPLDAQLLESCCAAVEESLDYVYRRCRAHDRSIGPLEIRLVEAGAFDALMDLLVSHGSSINQYKTPRCIESSLALKLLNSKVIACFFSPQDPECGM
B3: PtGH3-14: GH3 protein, accession EEE99364 (protein, listed as Populus trichocarpa)
chain: MTYDELDRNLEDLTKNAAHHQLQTLHSILQHQASVGYLQPYLSACHAPVDAATFRSQVPLSSYDDYFHLINQLANGDIDHHQPLLSADPLLCFFYSSGTSTMKPKLIPYFDSALSKAASYNAHQGSAAIFRNLVPPRPEVNKILWFLYADDAPTTRGGFKVMAASTYPLQGNKSRSNWSQTLSCISPREVVFGSNIKQQMYCHLLCALRSFDIIDGIRAAYAAGLIRAFSLLESKWEKLCDDLESGFPSLEIGDAAMKESVVEFLGGPQVDLSRRIREICAESNWGGILSKLWPNVRYVKSVTTGSMKQYYSKLKYYAGDVMILGGDYFASECCLGINLDIQQPPESTRFVMLPTTAYFEFLPFDLNESSVVGEETVDFSGVKVGKMYEVAVTTYRGLYRYRLGDIVRVVGFHNSSPLVEFVMRAPKTGYEIITEKDLMSAMESFQHSMAAEVVEFASFSDFELSPKRLKVFIEFREGCDFLQEEKLQGSVEALQRCCSSLENGLGEIYKVQKDRGEIGPLLVSVVRSGSFDGILQMAIKNGAPAGQYKPPKIIRNREIVDFMEESAVLTISLDSFHG
B4: VvGH3-8: GH3 protein, accession XP_002271002 (protein, listed as Vitis vinifera)
chain: MADGEILKKLEDSTKDAVAVQLQTLHTILQRNGRSSYLQRYGASLDTGSFREAVPLSCYDDYADYIDRMADGGGGDDDGDRPLLSVDPLVCFFNSSGTSSMKPKLIPYFDSPPSKAASHIAHQGSVAILRRLFPPRQSINKVLWFLYAGNVTYTKGGFKAMAASAFPLQSNNKNPSPFLSTSASPREVILGSNVEQQMYCHILCGLRNLDFLDGIRAPYAVGLIRAFALLEFKWEQICEDLKCGFPSMEITDIAMRDSVTEVLAGPQLDLSKRIRTICEGKNWGGIVGKLWPNVRYIKCVCTGSMEQYYQKLKYYAGEIPVLGGDYFASECCVGINLDILQPPQLTRFVLLPTAAYFEFLPFTLDEEEIGDDAQETVDFSGVEVGKMYEIVVTTYRGFFRYRLGDVVRVVGFHNTSPEVEFVMRAPKTPAEILTERDLMTAMGNFQLVLRTVKMPDVTEFASFFDLDSIPKQLKIFLEVAGVLQDEKLQELGSVLRRNFSSLEDGLGGVYKLRKGRGEVGPLLVSIVKPGSFNRLLQMATENGAPASQYKPPKIIRNLEIVHFMEGSALLTVSFDSSD
B5: AtGH3-13: GH3 protein, accession CAB86642 (protein, listed as Arabidopsis thaliana)
chain: MLPKFDLTDPKASLSLLEDVTTNVTQIQDSILEAVLSRNAHTEYLKGFLNGQVDKQTFKKNVPIVTYEDIKPYINRIANGEASDLICDRPISLLVMSSGTTAGIQNLIPLTTEDGEQRIMFGSLYRSLLYKYVEGIREGKSLTFYFVNPERETASGILIRTMITCILKSVNKTNSSLWDRLQISPHEISTCEDTTQSMYCQLLCGLLQRDNVARLGAPFASVFIRVIKYLEGHWQELCSNIRTGRLSDWITDPQCVSGISKFLTAPNPDLASLIEQECSKTSWEAIVKRLWPKAKCVEAVVTGSMAQYIPLLEFYGGGLPLISSWYGSSECFMGVNVNPLCKPSDVSYTIIPSMAYFEFLEVKKDQQEAGLDPIENHVVVDLVDVKIGHDYEPVVTTFSGLYRYRVGDLLRVTGFYNNSPHFRFVGRQKVVLSLHMANTYEEDLLKAVTNAKLLLEPHDLMLMEFTSRVDSSSFVGHYVLYWELGSKVKDAKLEPNRDVMEECCFTVEKYLDPLYRQERRKDKNIGPLEIKVVKPGAFDELMNFFLSRGSSVSQYKTPRSVKTEEAVKILEANVVSEFLSQETPPWG
B6: AtGH3-14: GH3 protein, accession CAB87143 (protein, listed as Arabidopsis thaliana)
chain: MLPKFDPTDQKACLSLLEDVTTNVKQIQDSVLEAILSRNAHTEYLSGFLNGQADKKSFKKNVPVVTYEDIKPYIDRIANGEPSDLICDRPISVLLTSSGTSGGVPKLIPLTTEELEQRISFASLYRPLLYKYIEGIRERKSFMLYFVTRESETASGILVRTMITCVLKSVTPANSFIWDQSQISPHAITTCSDTTQSMYCQLLCGLLQRDNVGRLGAPFASSFLKIIKFLEDHWPEFCSNIRTGCLSDWITDPQCVSGIGKFLTAPNPELASLIEQECSQTSWEAIVKRLWPKAKCIEAIVTGTMAQYNPLLEFYSGGLPVISTFYGSSECFFGLNLNPLSKPNEVSYTIIPCMAYFEFLEVEKDYESGHDPAENPVVVDLVDVKIGHDYEPVVTTFAGLYRYRLGDVLRVTGFYNNAPQFHFVGRQKVVLSIDMDKTYDEDLLKAVTNASLLLEPHDLMLMDFTSRVDSSSYPGHYVLYWELGRKVKDAKLELDQNVLEECCFTIEESLDAVYRKGRKNDKNIGPLEIKVVKPGAFDKLMNFFLSRGSSVSQYKTPRSVTNEEALKILEANVVSEFLSQKTPSWELHELHSSR
B7: PtGH3-9: GH3 protein, accession EEE81977 (protein, listed as Populus trichocarpa)
chain: MDGKKLEYKGWVALKEIERLTEKADEVQETILKAILMQNGETEYLSKYMKGSKDVDEFKFHVPVITYKDVCPYIQRIATGEDSSLVTGHPVTEMLCSSGTSAGEPKLMPSIAEDLDRRTFVYNLIMPIMNQYIFGLDEGKAMFLYFIKAEMSTPCGLPARTVLTSYYKSKHFKCRTRDAFNDFTSPDQAILCKDSNQSMYCQLLSGLVHRHQVLRLGAVFASAFLRAISFLERNWGRLCNDIRSGDLDPTITDPECRSCMSMLLTSPNPSLADEIEDICSNTSWKGILCHLWPRAKYIEAVVTGSMAQYIPSLEYYSEGKLPLVCTMYASSECYFGVNLKPLCDPADVAFTLLPNMCYFEFIHLGENGTWLVNKDEEGEVPNDKLVNLVNVRLGSYYELVVTTFAGLYRYRIGDVLRVTGFHNKAPQFQFICRRNVVLSIDNDKTNEEDLHKSITAAKKLLEPYDALLVEYTSYADTSSVPGHYVLYWEILHDASFPDSSAQLDVKLLQECCISVEEELDYVYRRCRAHDKSVGPLEIRVVESGTFEALMDFFIGQGASINQYKTPRSIKSNAALKLLNSHVKASAFSPRDPAWIP

What was measured:
[1] = LC-MS assay of GH3 conjugation of IAA with Asp or Glu; assay type: biochemical; settings: for kcat (hrs−1) IAA-Asp: conjugation of IAA with Asp by recombinant GH3 protein, IAA-Asp product by LC-MS; for kcat (hrs−1) IAA-Glu: conjugation of IAA with Glu by recombinant GH3 protein, IAA-Glu product by LC-MS; for IAA conjugation activity with Asp or Glu: result in words
Method in brief: (§1)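 N-terminal His-tagged GH3 homologs, expressed in E. coli C41(DE3) and Ni-NTA purified, at 44 to 164 μg/mL incubated 3 h at 30 °C in 20 mM Tris-HCl pH 8.0, 5 mM MgCl2, 1 mM DTT, 5 mM ATP, 5 mM auxin (IAA, 2,4-D or dicamba) and 5 mM Asp or Glu. Conjugates quantified by LC-MS against standards after MeOH precipitation; kinetics from Michaelis-Menten fits of initial velocities.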

[2] = LC-MS assay of GH3 conjugation of 2,4-D with Asp or Glu; assay type: biochemical; settings: for kcat (hrs−1) 2,4-D-Asp: conjugation of 2,4-D with Asp by recombinant GH3 protein, 2,4-D-Asp product by LC-MS; for kcat (hrs−1) 2,4-D-Asp / kcat (hrs−1) 2,4-D-Glu: 5 mM 2,4-D substrate; for kcat (hrs−1) 2,4-D-Glu: conjugation of 2,4-D with Glu by recombinant GH3 protein, 2,4-D-Glu product by LC-MS; for 2,4-D conjugation activity with Asp or Glu: result in words
Method in brief: as §1

Molecule | kcat (hrs−1) IAA-Asp [1] [h⁻¹] | kcat (hrs−1) IAA-Glu [1] [h⁻¹] | IAA conjugation activity with Asp or Glu [1] | kcat (hrs−1) 2,4-D-Asp [2] [h⁻¹] | kcat (hrs−1) 2,4-D-Glu [2] [h⁻¹] | 2,4-D conjugation activity with Asp or Glu [2]
B1 | 0.000 | 0.000 | IAA-inactive | 0.000 | 0.028 | 2,4-D conjugases
B2 | 0.000 | 0.000 | IAA-inactive | 0.000 | 0.043 | 2,4-D conjugases
B3 | 0.000 | 0.000 | IAA-inactive | 0.000 | 0.015 | 2,4-D conjugases
B4 | 0.000 | 0.000 | IAA-inactive | 0.000 | 0.028 | 2,4-D conjugases
B5 | 0.000 | 0.000 | IAA-inactive | 0.000 | 0.018 | 2,4-D conjugases
B6 | 0.000 | 0.000 | IAA-inactive | 0.122 | 0.233 | 2,4-D conjugases
B7 | 4.487 | 21.980 | – | 0.065 | 0.305 | –
